Data as given in publication PMC12775996 (2025).

Legend:
[1] = molecular target: T1, adenovirus type 11 vector particles (human adenovirus type 11); test: SPR; hydrophobic (slow) component of one-to-two model
[2] = molecular target: T2, adenovirus type 13 vector particles (human adenovirus type 13); test: as above
[3] = molecular target: T1, adenovirus type 11 vector particles; test: SPR; electrostatic (fast) component of one-to-two model
[4] = molecular target: T2, adenovirus type 13 vector particles; test: as above
[5] = molecular target: T3, adenovirus type 5 vector particles (wild-type capsid) (human adenovirus type 5); test: SPR; hydrophobic (slow) component of one-to-two model
[6] = molecular target: T3, adenovirus type 5 vector particles …; test: as above; remark: listed apart in the source
[7] = molecular target: T3, adenovirus type 5 vector particles …; test: SPR; electrostatic (fast) component of one-to-two model

B1: human platelet factor 4 (natural protein)
chain: EAEEDGDLQCLCVKTTSQVRPRHITSLEVIKAGPHCPTAQLIATLKNGRKICLDLQAPLYKKIIKKLLES
Kd [1]: 13.4 nM
koff [1]: 0.000482 s⁻¹
Kd [2]: 12.9 nM
koff [2]: 0.000363 s⁻¹
Kd [3]: 742 nM
koff [3]: 0.00879 s⁻¹
Kd [4]: 774 nM
koff [4]: 0.00761 s⁻¹

B2: human platelet factor 4 (natural protein)
chain: B1 chain
modifications: wild-type capsid; copies by convention for the Ad5 virion; hexon is the PF4-binding protein; internal proteins IIIa, VI and VIII left out; Y477 is the fiber residue of the paper (AAQ19310.1)
koff [5]: 0.00083 s⁻¹
Kd [6]: 24.4 nM
koff [7]: 0.0124 s⁻¹
